One block for each molecule: values may come before it.
Experiments:
[1] = molecular target: human von Willebrand Factor (human) (UniProt P04275); assay: Biacore SPR, human vWF immobilized on a CM-5 chip by amine coupling, full-length recombinant FVIII passed over as analyte
[2] = molecular target: T1, human von Willebrand Factor (human, UniProt P04275 764-2813); assay: Biacore, human vWF immobilized on CM-5 chip
T1 construct: also called vWF; vWf
Protocol: (§1) Human vWF was immobilized onto a CM-5 chip by amine coupling. Two Factor VIII heterodimers (BDDFc+hinge and BDDFc−hinge), BDD (the Factor VIII protein from which BDDFc+hinge and BDDFc−hinge are derived), and full-length recombinant Factor VIII were passed over the surface of the chip at various concentrations (e.g., 1, 2, 4, 8, 16, and 25 nM).

[3] = molecular target: T2, recombinant mouse FcRn (mouse, UniProt Q61559 22-297; P01887 21-119, limits assumed); assay: Biacore, mFcRn immobilized on CM-5 chip
T2 construct: also called mFcRn
T2 sequence (looked up) 1: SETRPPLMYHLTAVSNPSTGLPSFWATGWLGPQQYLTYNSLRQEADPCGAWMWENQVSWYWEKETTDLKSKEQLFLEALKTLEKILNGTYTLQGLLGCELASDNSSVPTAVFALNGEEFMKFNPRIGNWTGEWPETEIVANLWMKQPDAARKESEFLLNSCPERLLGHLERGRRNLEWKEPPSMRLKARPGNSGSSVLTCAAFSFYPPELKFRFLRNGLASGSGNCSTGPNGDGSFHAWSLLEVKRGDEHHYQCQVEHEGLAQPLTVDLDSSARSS
T2 sequence (looked up) 2: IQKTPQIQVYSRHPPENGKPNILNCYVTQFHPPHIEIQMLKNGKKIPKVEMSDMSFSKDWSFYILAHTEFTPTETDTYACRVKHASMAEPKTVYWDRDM
Description: The following example describes functional studies performed using the Biacore™ system to determine whether an FcRn binding epitope retains it ability to bind to FnRn when incorporated in a Factor VIII fusion heterodimer. For use in the Biacore™ test, recombinant mouse FcRn (mFcRn) protein was expressed in CHO-K1 cells and purified by mouse IgG-affinity chromatography. Mouse FcRn was immobilized onto a CM-5 chip by amine coupling. Two Factor VIII heterodimers (BDDFc+hinge and BDDFc−hinge), BDD (the Factor VIII protein from which BDDFc+hinge and BDDFc−hinge are derived), and full-length recombinant Factor VIII were passed over the surface of the chip at various concentrations (e.g., 1.5, 3, 6, 12, 25, and 50 nM). Binding of BDDFc±hinge Factor VIII fusion heterodimers to immobilized mFcRn was detected (FIG. 13).

[4] = molecular target: T1, human von Willebrand Factor; assay: Biacore SPR, human vWF immobilized on a CM-5 chip by amine coupling, BDD passed over as analyte
Protocol: as §1

- Kd [1]: 0.657 nM
Molecule: full-length recombinant Factor VIII (from UniProt P00451 20-2351)

- Kd [2]: 0.908 nM
- Kd [3]: 3.75 nM
B1: BDDFc-hinge Factor VIII fusion heterodimer (Fc fusion)
chain: ATRRYYLGAVELSWDYMQSDLGELPVDARFPPRVPKSFPFNTSVVYKKTLFVEFTDHLFNIAKPRPPWMGLLGPTIQAEVYDTVVITLKNMASHPVSLHAVGVSYWKASEGAEYDDQTSQREKEDDKVFPGGSHTYVWQVLKENGPMASDPLCLTYSYLSHVDLVKDLNSGLIGALLVCREGSLAKEKTQTLHKFILLFAVFDEGKSWHSETKNSLMQDRDAASARAWPKMHTVNGYVNRSLPGLIGCHRKSVYWHVIGMGTTPEVHSIFLEGHTFLVRNHRQASLEISPITFLTAQTLLMDLGQFLLFCHISSHQHDGMEAYVKVDSCPEEPQLRMKNNEEAEDYDDDLTDSEMDVVRFDDDNSPSFIQIRSVAKKHPKTWVHYIAAEEEDWDYAPLVLAPDDRSYKSQYLNNGPQRIGRKYKKVRFMAYTDETFKTREAIQHESGILGPLLYGEVGDTLLIIFKNQASRPYNIYPHGITDVRPLYSRRLPKGVKHLKDFPILPGEIFKYKWTVTVEDGPTKSDPRCLTRYYSSFVNMERDLASGLIGPLLICYKESVDQRGNQIMSDKRNVILFSVFDENRSWYLTENIQRFLPNPAGVQLEDPEFQASNIMHSINGYVFDSLQLSVCLHEVAYWYILSIGAQTDFLSVFFSGYTFKHKMVYEDTLTLFPFSGETVFMSMENPGLWILGCHNSDFRNRGMTALLKVSSCDKNTGDYYEDSYEDISAYLLSKNNAIEPRSFSQNVPEVSSVFIFPPKPKDVLTITLTPKVTCVVVDISKDDPEVQFSWFVDDVEVHTAQTQPREEQFNSTFRSVSELPIMHQDWLNGKEFKCRVNSAAFPAPIEKTISKTKGRPKAPQVYTIPPPKEQMAKDKVSLTCMITDFFPEDITVEWQWNGQPAENYKNTQPIMDTDGSYFVYSKLNVQKSNWEAGNTFTCSVLHEGLHNHHTEKSLSHSPGKSQNPPVLKRHQREITRTTLQSDQEEIDYDDTISVEMKKEDFDIYDEDENQSPRSFQKKTRHYFIAAVERLWDYGMSSSPHVLRNRAQSGSVPQFKKVVFQEFTDGSFTQPLYRGELNEHLGLLGPYIRAEVEDNIMVTFRNQASRPYSFYSSLISYEEDQRQGAEPRKNFVKPNETKTYFWKVQHHMAPTKDEFDCKAWAYFSDVDLEKDVHSGLIGPLLVCHTNTLNPAHGRQVTVQEFALFFTIFDETKSWYFTENMERNCRAPCNIQMEDPTFKENYRFHAINGYIMDTLPGLVMAQDQRIRWYLLSMGSNENIHSIHFSGHVFTVRKKEEYKMALYNLYPGVFETVEMLPSKAGIWRVECLIGEHLHAGMSTLFLVYSNKCQTPLGMASGHIRDFQITASGQYGQWAPKLARLHYSGSINAWSTKEPFSWIKVDLLAPMIIHGIKTQGARQKFSSLYISQFIIMYSLDGKKWQTYRGNSTGTLMVFFGNVDSSGIKHNIFNPPIIARYIRLHPTHYSIRSTLRMELMGCDLNSCSMPLGMESKAISDAQITASSYFTNMFATWSPSKARLHLQGRSNAWRPQVNNPKEWLQVDFQKTMKVTGVTTQGVKSLLTSMYVKEFLISSSQDGHQWTLFFQNGKVKVFQGNQDSFTPVVNSLDPPLLTRYLRIHPQSWVHQIALRMEVLGCEAQDLY
notes: No signal peptide limits are stated on this entry; It is processed into a heavy chain-Fc chimera and a light chain; also called BDDmFc-hinge expression product; FVIII-Fc

- Kd [2]: 0.465 nM
- Kd [3]: 2.48 nM
B2: BDDFc+hinge Factor VIII fusion heterodimer (Fc fusion)
chain: ATRRYYLGAVELSWDYMQSDLGELPVDARFPPRVPKSFPFNTSVVYKKTLFVEFTDHLFNIAKPRPPWMGLLGPTIQAEVYDTVVITLKNMASHPVSLHAVGVSYWKASEGAEYDDQTSQREKEDDKVFPGGSHTYVWQVLKENGPMASDPLCLTYSYLSHVDLVKDLNSGLIGALLVCREGSLAKEKTQTLHKFILLFAVFDEGKSWHSETKNSLMQDRDAASARAWPKMHTVNGYVNRSLPGLIGCHRKSVYWHVIGMGTTPEVHSIFLEGHTFLVRNHRQASLEISPITFLTAQTLLMDLGQFLLFCHISSHQHDGMEAYVKVDSCPEEPQLRMKNNEEAEDYDDDLTDSEMDVVRFDDDNSPSFIQIRSVAKKHPKTWVHYIAAEEEDWDYAPLVLAPDDRSYKSQYLNNGPQRIGRKYKKVRFMAYTDETFKTREAIQHESGILGPLLYGEVGDTLLIIFKNQASRPYNIYPHGITDVRPLYSRRLPKGVKHLKDFPILPGEIFKYKWTVTVEDGPTKSDPRCLTRYYSSFVNMERDLASGLIGPLLICYKESVDQRGNQIMSDKRNVILFSVFDENRSWYLTENIQRFLPNPAGVQLEDPEFQASNIMHSINGYVFDSLQLSVCLHEVAYWYILSIGAQTDFLSVFFSGYTFKHKMVYEDTLTLFPFSGETVFMSMENPGLWILGCHNSDFRNRGMTALLKVSSCDKNTGDYYEDSYEDISAYLLSKNNAIEPRSFSQNVPRDCGCKPCICTVPEVSSVFIFPPKPKDVLTITLTPKVTCVVVDISKDDPEVQFSWFVDDVEVHTAQTQPREEQFNSTFRSVSELPIMHQDWLNGKEFKCRVNSAAFPAPIEKTISKTKGRPKAPQVYTIPPPKEQMAKDKVSLTCMITDFFPEDITVEWQWNGQPAENYKNTQPIMDTDGSYFVYSKLNVQKSNWEAGNTFTCSVLHEGLHNHHTEKSLSHSPGKSQNPPVLKRHQREITRTTLQSDQEEIDYDDTISVEMKKEDFDIYDEDENQSPRSFQKKTRHYFIAAVERLWDYGMSSSPHVLRNRAQSGSVPQFKKVVFQEFTDGSFTQPLYRGELNEHLGLLGPYIRAEVEDNIMVTFRNQASRPYSFYSSLISYEEDQRQGAEPRKNFVKPNETKTYFWKVQHHMAPTKDEFDCKAWAYFSDVDLEKDVHSGLIGPLLVCHTNTLNPAHGRQVTVQEFALFFTIFDETKSWYFTENMERNCRAPCNIQMEDPTFKENYRFHAINGYIMDTLPGLVMAQDQRIRWYLLSMGSNENIHSIHFSGHVFTVRKKEEYKMALYNLYPGVFETVEMLPSKAGIWRVECLIGEHLHAGMSTLFLVYSNKCQTPLGMASGHIRDFQITASGQYGQWAPKLARLHYSGSINAWSTKEPFSWIKVDLLAPMIIHGIKTQGARQKFSSLYISQFIIMYSLDGKKWQTYRGNSTGTLMVFFGNVDSSGIKHNIFNPPIIARYIRLHPTHYSIRSTLRMELMGCDLNSCSMPLGMESKAISDAQITASSYFTNMFATWSPSKARLHLQGRSNAWRPQVNNPKEWLQVDFQKTMKVTGVTTQGVKSLLTSMYVKEFLISSSQDGHQWTLFFQNGKVKVFQGNQDSFTPVVNSLDPPLLTRYLRIHPQSWVHQIALRMEVLGCEAQDLY
notes: also called BDDmFc+hinge expression product

- Kd [4]: 0.53 nM
B3: B-domain deleted Factor VIII (BDD) (other)
chain: ATRRYYLGAVELSWDYMQSDLGELPVDARFPPRVPKSFPFNTSVVYKKTLFVEFTVHLFNIAKPRPPWMGLLGPTIQAEVYDTVVITLKNMASHPVSLHAVGVSYWKASEGAEYDDQTSQREKEDDKVFPGGSHTYVWQVLKENGPMASDPLCLTYSYLSHVDLVKDLNSGLIGALLVCREGSLAKEKTQTLHKFILLFAVFDEGKSWHSETKNSLMQDRDAASARAWPKMHTVNGYVNRSLPGLIGCHRKSVYWHVIGMGTTPEVHSIFLEGHTFLVRNHRQASLEISPITFLTAQTLLMDLGQFLLFCHISSHQHDGMEAYVKVDSCPEEPQLRMKNNEEAEDYDDDLTDSEMDVVRFDDDNSPSFIQIRSVAKKHPKTWVHYIAAEEEDWDYAPLVLAPDDRSYKSQYLNNGPQRIGRKYKKVRFMAYTDETFKTREAIQHESGILGPLLYGEVGDTLLIIFKNQASRPYNIYPHGITDVRPLYSRRLPKGVKHLKDFPILPGEIFKYKWTVTVEDGPTKSDPRCLTRYYSSFVNMERDLASGLIGPLLICYKESVDQRGNQIMSDKRNVILFSVFDENRSWYLTENIQRFLPNPAGVQLEDPEFQASNIMHSINGYVFDSLQLSVCLHEVAYWYILSIGAQTDFLSVFFSGYTFKHKMVYEDTLTLFPFSGETVFMSMENPGLWILGCHNSDFRNRGMTALLKVSSCDKNTGDYYEDSYEDISAYLLSKNNAIEPRSFSQNPPVLKRHQREITRTTLQSDQEEIDYDDTISVEMKKEDFDIYDEDENQSPRSFQKKTRHYFIAAVERLWDYGMSSSPHVLRNRAQSGSVPQFKKVVFQEFTDGSFTQPLYRGELNEHLGLLGPYIRAEVEDNIMVTFRNQASRPYSFYSSLISYEEDQRQGAEPRKNFVKPNETKTYFWKVQHHMAPTKDEFDCKAWAYFSDVDLEKDVHSGLIGPLLVCHTNTLNPAHGRQVTVQEFALFFTIFDETKSWYFTENMERNCRAPCNIQMEDPTFKENYRFHAINGYIMDTLPGLVMAQDQRIRWYLLSMGSNENIHSIHFSGHVFTVRKKEEYKMALYNLYPGVFETVEMLPSKAGIWRVECLIGEHLHAGMSTLFLVYSNKCQTPLGMASGHIRDFQITASGQYGQWAPKLARLHYSGSINAWSTKEPFSWIKVDLLAPMIIHGIKTQGARQKFSSLYISQFIIMYSLDGKKWQTYRGNSTGTLMVFFGNVDSSGIKHNIFNPPIIARYIRLHPTHYSIRSTLRMELMGCDLNSCSMPLGMESKAISDAQITASSYFTNMFATWSPSKARLHLQGRSNAWRPQVNNPKEWLQVDFQKTMKVTGVTTQGVKSLLTSMYVKEFLISSSQDGHQWTLFFQNGKVKVFQGNQDSFTPVVNSLDPPLLTRYLRIHPQSWVHQIALRMEVLGCEAQDLY
notes: The protein circulates as a heavy chain and light chain heterodimer; also called BDD-FVIII; BDD Factor VIII

Source: US20120142593A1 (Bayer, published 2012)
